In doi:10.1101/2020.06.12.148387 (bioRxiv, 2020):

What was measured:
[1] = biological target: deglycosylated SARS-CoV-2 RBD (SARS-CoV-2, UniProt P0DTC2); test: crystal structure; conditions: both partners purified
[2] = biological target: biotinylated SARS-CoV-2 RBD (SARS-CoV-2, UniProt P0DTC2); test: cell-based ACE2 blocking assay (plate, streptavidin-HRP)
[3] = biological target: T1, S1 subunit of SARS-CoV-1 Spike (SARS-CoV-1 (SARS-CoV), strain , UniProt P59594); test: ELISA
T1 construct: source: bought: Sino Biological

[4] = biological target: SARS-CoV-2 RBD-Fc (SARS-CoV-2, strain  …, UniProt P0DTC2); test: SPR; conditions: both partners purified

B1: nanobody (Nb) used as crystallisation chaperone (VHH)
VHH: QVQLVESGGGLMQAGGSLRLSCAVSGRTFSTAAMGWFRQAPGKEREFVAAIRWSGGSAYYADSVKGRFTISRDKAKNTVYLQMNSLKYEDTAVYYCAQTHYVSYLLSDYATWPYDYWGQGTQVTVSS
B1: binds [1].

B2: EY6A IgG (antibody, V domains shown)
VH: EVQLVESGGGVVQPGRSLRLSCAASAFTFSSYDMHWVRQAPGKGLEWVAVISYDGSNKYYADSVKGRFTISRDNSKNTLYLQMNSLRAEDTAVYYCAKDGGKLWVYYFDYWGQGTLVTVSS
VL: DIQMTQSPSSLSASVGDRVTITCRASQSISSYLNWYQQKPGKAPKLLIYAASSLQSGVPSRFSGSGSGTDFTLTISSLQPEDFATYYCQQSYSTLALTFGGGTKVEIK
notes: also called antibody EY6A; EY6A mAb; copies: 2 + 2
For B2, the IC50 [2] was 54 nM and the binding result [3] was “binds”.

B3: EY6A Fab (digested from IgG with papain) (Fab, V domains shown)
VH: EVQLVESGGGVVQPGRSLRLSCAASAFTFSSYDMHWVRQAPGKGLEWVAVISYDGSNKYYADSVKGRFTISRDNSKNTLYLQMNSLRAEDTAVYYCAKDGGKLWVYYFDYWGQGTLVTVSS
VL: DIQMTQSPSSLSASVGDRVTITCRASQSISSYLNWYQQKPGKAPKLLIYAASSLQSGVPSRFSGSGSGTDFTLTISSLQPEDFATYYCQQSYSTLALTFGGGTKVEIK
notes: also called Fab-EY6A; source: digested from ExpiCHO-made IgG with papain (Pierce Fab Preparation Kit)
In the case of B3, the Kd [4] is reported as 2 nM.
